Results as given in publication PMC9482650, “Quantitative fragmentomics allow affinity mapping of interactomes” (Nature Communications, 2022).

Key:
Test in all cases: holdup assay
Parameters in all cases: key: below the threshold = too weak to quantify, mostly under pKd 3.1 to 4
[1] = biological target: T1, SNTB1, Q13884
T1 sequence (Q13884 107-205, limits assumed, looked up): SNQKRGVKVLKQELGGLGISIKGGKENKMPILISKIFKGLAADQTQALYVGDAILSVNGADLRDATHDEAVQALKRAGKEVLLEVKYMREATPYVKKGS

[2] = biological target: T2, GRIP1_3, Q9Y3R0
T2 sequence (Q9Y3R0 247-346, limits assumed, looked up): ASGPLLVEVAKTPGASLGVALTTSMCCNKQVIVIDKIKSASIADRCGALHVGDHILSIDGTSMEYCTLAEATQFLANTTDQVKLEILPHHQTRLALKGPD

[3] = biological target: SCRIB_2, Q14160
Chain of SCRIB_2, Q14160 (Q14160 857-960): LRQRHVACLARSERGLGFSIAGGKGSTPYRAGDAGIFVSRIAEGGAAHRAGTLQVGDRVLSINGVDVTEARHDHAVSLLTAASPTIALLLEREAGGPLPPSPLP

[4] = biological target: DLG2_2, Q15700
[5] = biological target: FRMPD2_2, Q68DX3
Chain of FRMPD2_2, Q68DX3 (Q68DX3 944-1038): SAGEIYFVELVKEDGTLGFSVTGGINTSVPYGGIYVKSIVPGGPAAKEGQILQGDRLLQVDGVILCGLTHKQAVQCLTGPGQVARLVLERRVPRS

[6] = biological target: GRIP2_7, Q9C0E4
Chain of GRIP2_7, Q9C0E4 (Q9C0E4 934-1023): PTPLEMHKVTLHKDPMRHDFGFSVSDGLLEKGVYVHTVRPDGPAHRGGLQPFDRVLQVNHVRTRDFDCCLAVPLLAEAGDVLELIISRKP

[7] = biological target: LNX1_2, Q8TBB1
Chain of LNX1_2, Q8TBB1 (Q8TBB1 371-470): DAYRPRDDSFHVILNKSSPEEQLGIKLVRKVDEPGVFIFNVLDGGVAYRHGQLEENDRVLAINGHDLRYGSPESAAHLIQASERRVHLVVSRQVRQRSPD

[8] = biological target: T3, MPDZ_5, O75970
T3 sequence (O75970 695-796, limits assumed, looked up): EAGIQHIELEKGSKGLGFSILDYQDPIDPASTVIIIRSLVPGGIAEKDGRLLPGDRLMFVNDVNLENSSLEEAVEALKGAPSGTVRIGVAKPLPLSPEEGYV

[9] = biological target: T4, TX1BP3, O14907
T4 sequence (O14907 10-122, limits assumed, looked up): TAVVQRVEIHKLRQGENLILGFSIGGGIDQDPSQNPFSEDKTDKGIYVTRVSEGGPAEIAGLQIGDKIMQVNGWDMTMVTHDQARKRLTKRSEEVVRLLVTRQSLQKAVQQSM

[10] = biological target: GRIP2_5, Q9C0E4
Chain of GRIP2_5, Q9C0E4 (Q9C0E4 544-642): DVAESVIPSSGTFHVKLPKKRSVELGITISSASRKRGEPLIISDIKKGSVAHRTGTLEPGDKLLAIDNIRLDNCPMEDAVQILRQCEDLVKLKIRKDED

[11] = biological target: Inadl_8, Q8NI35
Chain of Inadl_8, Q8NI35 (Q8NI35 1425-1530): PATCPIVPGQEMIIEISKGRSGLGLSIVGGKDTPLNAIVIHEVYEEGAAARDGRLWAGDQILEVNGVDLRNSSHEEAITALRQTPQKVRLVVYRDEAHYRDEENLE

[12] = biological target: T5, PDZD7_3, Q9H5P4
T5 sequence (Q9H5P4 857-944, limits assumed, looked up): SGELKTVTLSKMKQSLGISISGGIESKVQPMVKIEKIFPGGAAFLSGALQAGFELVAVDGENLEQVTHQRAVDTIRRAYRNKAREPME

[13] = biological target: T6, NHERF3_1, Q5T2W1
T6 sequence (Q5T2W1 4-100, limits assumed, looked up): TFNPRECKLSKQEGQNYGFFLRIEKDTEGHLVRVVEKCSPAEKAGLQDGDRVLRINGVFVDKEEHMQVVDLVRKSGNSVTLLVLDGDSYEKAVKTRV

[14] = biological target: T7, SNTG1, Q9NSN8
T7 sequence (Q9NSN8 52-150, limits assumed, looked up): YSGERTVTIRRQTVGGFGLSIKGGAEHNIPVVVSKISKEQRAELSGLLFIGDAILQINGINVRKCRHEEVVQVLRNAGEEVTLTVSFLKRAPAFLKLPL

[15] = biological target: T8, SNTA1, Q13424
T8 sequence (Q13424 82-180, limits assumed, looked up): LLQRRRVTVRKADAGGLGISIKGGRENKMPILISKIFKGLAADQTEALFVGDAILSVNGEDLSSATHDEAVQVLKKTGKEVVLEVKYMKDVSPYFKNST

[16] = biological target: T9, DLG3_2, Q92796
T9 sequence (Q92796 221-321, limits assumed, looked up): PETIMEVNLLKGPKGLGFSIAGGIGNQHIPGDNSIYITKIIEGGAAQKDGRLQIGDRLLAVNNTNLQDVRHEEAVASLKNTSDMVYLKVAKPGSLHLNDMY

[17] = biological target: TJP1_2, Q07157
Chain of TJP1_2, Q07157 (Q07157 181-274): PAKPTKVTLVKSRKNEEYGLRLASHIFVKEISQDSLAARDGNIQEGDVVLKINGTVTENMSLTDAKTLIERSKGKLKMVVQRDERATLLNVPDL

[18] = biological target: T10, NHERF3_4, Q5T2W1
T10 sequence (Q5T2W1 373-468, limits assumed, looked up): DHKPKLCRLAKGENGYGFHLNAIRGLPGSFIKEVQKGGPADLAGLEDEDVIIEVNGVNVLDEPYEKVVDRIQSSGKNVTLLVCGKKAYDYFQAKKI

[19] = biological target: T11, MPP6, Q9NZW5
T11 sequence (Q9NZW5 125-219, limits assumed, looked up): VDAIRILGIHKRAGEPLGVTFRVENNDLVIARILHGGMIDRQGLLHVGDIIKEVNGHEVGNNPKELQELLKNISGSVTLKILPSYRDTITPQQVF

[20] = biological target: PARD3_3, Q8TEW0
Chain of PARD3_3, Q8TEW0 (Q8TEW0 582-685): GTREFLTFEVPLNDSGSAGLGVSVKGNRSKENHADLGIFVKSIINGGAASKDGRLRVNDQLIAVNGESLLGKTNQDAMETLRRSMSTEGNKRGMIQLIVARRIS

[21] = biological target: GIPC2, Q8TF65
Chain of GIPC2, Q8TF65 (Q8TF65 112-203): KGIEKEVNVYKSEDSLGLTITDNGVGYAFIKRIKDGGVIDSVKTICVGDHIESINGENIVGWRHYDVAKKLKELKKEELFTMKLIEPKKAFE

[22] = biological target: DLG1_2, Q12959
Chain of DLG1_2, Q12959 (Q12959 314-412): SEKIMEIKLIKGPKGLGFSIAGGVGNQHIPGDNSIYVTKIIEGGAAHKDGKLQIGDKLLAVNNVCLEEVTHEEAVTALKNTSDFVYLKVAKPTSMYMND

[23] = biological target: T12, APBA2_2, Q99767
T12 sequence (Q99767 654-744, limits assumed, looked up): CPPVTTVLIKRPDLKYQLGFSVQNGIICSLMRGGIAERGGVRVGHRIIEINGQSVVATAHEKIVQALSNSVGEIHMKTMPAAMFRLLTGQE

[24] = biological target: DLG2_3, Q15700
[25] = biological target: T13, LIN7C, Q9NUP9
T13 sequence (Q9NUP9 88-185, limits assumed, looked up): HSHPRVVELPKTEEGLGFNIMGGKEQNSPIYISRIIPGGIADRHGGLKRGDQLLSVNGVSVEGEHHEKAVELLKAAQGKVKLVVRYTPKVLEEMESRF

[26] = plain residues with an end cap or a label only (N-terminal biotin on a linker: ttds)
[27] = plain residues with an end cap or a label only (N-terminal biotin on a linker: ado-ado)
[28] = plain residues with an end cap or a label only (N-terminal biotin on a linker: ahx)

B1: PODXL, O00592 (peptide)
chain: DLDEEEDTHL
[1]; [26]
  pKd: below the threshold
[2]; [26]
  pKd: below the threshold
[3]; [26]
  pKd: below the threshold
[4]; [26]
  pKd: below the threshold
[5]; [26]
  pKd: below the threshold
[6]; [26]
  pKd: below the threshold
[7]; [26]
  pKd: below the threshold
[8]; [26]
  pKd: below the threshold
[9]; [26]
  pKd: below the threshold
[10]; [26]
  pKd: below the threshold
[11]; [26]
  pKd: below the threshold
[12]; [26]
  pKd: 3.59
[13]; [26]
  pKd: 4.5
[14]; [26]
  pKd: 3.49
[15]; [26]
  pKd: 3.63
[16]; [26]
  pKd: below the threshold
[17]; [26]
  pKd: below the threshold
[18]; [26]
  pKd: below the threshold
[19]; [26]
  pKd: below the threshold
[20]; [26]
  pKd: 4.22
[21]; [26]
  pKd: below the threshold
[22]; [26]
  pKd: below the threshold
[23]; [26]
  pKd: below the threshold
[24]; [26]
  pKd: below the threshold
[25]; [26]
  pKd: below the threshold

B2: DGKI, O75912 (peptide)
chain: IGHEDLETAV
[1]; [27]
  pKd: 5.08
[2]; [27]
  pKd: below the threshold
[3]; [27]
  pKd: 4.83
[4]; [27]
  pKd: 4.71
[5]; [27]
  pKd: 5.22
[6]; [27]
  pKd: below the threshold
[7]; [27]
  pKd: below the threshold
[8]; [27]
  pKd: below the threshold
[9]; [27]
  pKd: 4.3
[10]; [27]
  pKd: below the threshold
[11]; [27]
  pKd: below the threshold
[12]; [27]
  pKd: 4.59
[13]; [27]
  pKd: 4.75
[14]; [27]
  pKd: 5.43
[15]; [27]
  pKd: 5.18
[16]; [27]
  pKd: 4.8
[17]; [27]
  pKd: below the threshold
[18]; [27]
  pKd: below the threshold
[19]; [27]
  pKd: below the threshold
[20]; [27]
  pKd: 3.64
[21]; [27]
  pKd: 3.6
[22]; [27]
  pKd: 5.11
[23]; [27]
  pKd: below the threshold
[24]; [27]
  pKd: 3.96
[25]; [27]
  pKd: 4.57

B3: MAPK12, P53778 (peptide)
chain: GARVSKETPL
[1]; [26]
  pKd: 4.71
[2]; [26]
  pKd: below the threshold
[3]; [26]
  pKd: 3.65
[4]; [26]
  pKd: 4.25
[5]; [26]
  pKd: below the threshold
[6]; [26]
  pKd: below the threshold
[7]; [26]
  pKd: below the threshold
[8]; [26]
  pKd: below the threshold
[9]; [26]
  pKd: 4.26
[10]; [26]
  pKd: below the threshold
[11]; [26]
  pKd: below the threshold
[12]; [26]
  pKd: 3.86
[13]; [26]
  pKd: 5.56
[14]; [26]
  pKd: below the threshold
[15]; [26]
  pKd: 4.49
[16]; [26]
  pKd: 4.28
[17]; [26]
  pKd: below the threshold
[18]; [26]
  pKd: 3.72
[19]; [26]
  pKd: below the threshold
[20]; [26]
  pKd: below the threshold
[21]; [26]
  pKd: below the threshold
[22]; [26]
  pKd: 4.71
[23]; [26]
  pKd: below the threshold
[24]; [26]
  pKd: 4.21
[25]; [26]
  pKd: below the threshold

B4: GDA, Q9Y2T3 (peptide)
chain: KQVVPFSSSV
[1]; [26]
  pKd: 3.65
[2]; [26]
  pKd: below the threshold
[3]; [26]
  pKd: below the threshold
[4]; [26]
  pKd: 3.89
[5]; [26]
  pKd: below the threshold
[6]; [26]
  pKd: below the threshold
[7]; [26]
  pKd: below the threshold
[8]; [26]
  pKd: 3.52
[9]; [26]
  pKd: 4.31
[10]; [26]
  pKd: below the threshold
[11]; [26]
  pKd: 4.89
[12]; [26]
  pKd: 3.59
[13]; [26]
  pKd: 4.31
[14]; [26]
  pKd: 3.71
[15]; [26]
  pKd: below the threshold
[16]; [26]
  pKd: 4.38
[17]; [26]
  pKd: below the threshold
[18]; [26]
  pKd: below the threshold
[19]; [26]
  pKd: below the threshold
[20]; [26]
  pKd: below the threshold
[21]; [26]
  pKd: below the threshold
[22]; [26]
  pKd: 4.38
[23]; [26]
  pKd: below the threshold
[24]; [26]
  pKd: 3.63
[25]; [26]
  pKd: below the threshold

B5: DLL1, O00548 (peptide)
chain: KDECVIATEV
[1]; [28]
  pKd: 3.64
[2]; [28]
  pKd: below the threshold
[3]; [28]
  pKd: 3.82
[4]; [28]
  pKd: 3.62
[5]; [28]
  pKd: 3.99
[6]; [28]
  pKd: below the threshold
[7]; [28]
  pKd: below the threshold
[8]; [28]
  pKd: below the threshold
[9]; [28]
  pKd: below the threshold
[10]; [28]
  pKd: below the threshold
[11]; [28]
  pKd: 3.64
[12]; [28]
  pKd: 4.63
[13]; [28]
  pKd: 3.88
[14]; [28]
  pKd: 3.94
[15]; [28]
  pKd: below the threshold
[16]; [28]
  pKd: 4.52
[17]; [28]
  pKd: below the threshold
[18]; [28]
  pKd: below the threshold
[19]; [28]
  pKd: below the threshold
[20]; [28]
  pKd: below the threshold
[21]; [28]
  pKd: below the threshold
[22]; [28]
  pKd: 4.37
[23]; [28]
  pKd: below the threshold
[24]; [28]
  pKd: 4.13
[25]; [28]
  pKd: below the threshold

B6: U2AF2, P26368 (peptide)
chain: PDSYHRRDFW
[1]; [27]
  pKd: below the threshold
[2]; [27]
  pKd: below the threshold
[3]; [27]
  pKd: below the threshold
[4]; [27]
  pKd: below the threshold
[5]; [27]
  pKd: below the threshold
[6]; [27]
  pKd: below the threshold
[7]; [27]
  pKd: below the threshold
[8]; [27]
  pKd: below the threshold
[9]; [27]
  pKd: below the threshold
[10]; [27]
  pKd: below the threshold
[11]; [27]
  pKd: 3.48
[12]; [27]
  pKd: below the threshold
[13]; [27]
  pKd: below the threshold
[14]; [27]
  pKd: below the threshold
[15]; [27]
  pKd: below the threshold
[16]; [27]
  pKd: below the threshold
[17]; [27]
  pKd: 3.72
[18]; [27]
  pKd: below the threshold
[19]; [27]
  pKd: below the threshold
[20]; [27]
  pKd: below the threshold
[21]; [27]
  pKd: below the threshold
[22]; [27]
  pKd: below the threshold
[23]; [27]
  pKd: below the threshold
[24]; [27]
  pKd: below the threshold
[25]; [27]
  pKd: below the threshold
